Consider 1 molecule from patent publication US20230235040A1 (ALMIRALL S A, published 2023).

The target of assay [1] is T1, hu-IL-36β-Avi (in-vivo biotinylated) (human, site-specifically biotinylated in vivo on the C-terminal AviTag (BirA)).
T1 construct: also called biotinylated human IL-36β-Avi
T1 chain: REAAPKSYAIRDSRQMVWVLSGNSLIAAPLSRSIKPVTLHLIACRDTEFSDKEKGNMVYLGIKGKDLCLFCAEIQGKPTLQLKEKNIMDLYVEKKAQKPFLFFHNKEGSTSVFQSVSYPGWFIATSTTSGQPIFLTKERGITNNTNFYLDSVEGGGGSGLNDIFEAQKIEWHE
In words: SPR (Biacore 8K), in-vivo biotinylated IL-36-Avi captured on CAP chip, bispecific IgG injected, 37°C. The procedure: (§1) Surface plasmon resonance (SPR) analysis was used to determine the binding affinity for human and cynomolgus monkey IL-36 (“hu-IL-36” and “cy-IL-36,” respectively) using a BIACORE™ 8K instrument as described in Example 2. […] Briefly, a 1:4 dilution of Biotin CAPture Reagent (GE Healthcare) into HBS-EP buffer (0.01 M HEPES pH 7.4, 0.15 M NaCl, 3 mM EDTA, 0.005% Surfactant P20) was applied to a CAP sensor chip at 2 μL/min flow rate. For kinetics measurements, 1 nM biotinylated human and cyno IL-36α-Avi, IL-36γ-Avi; 0.8 nM biotinylated human and cyno IL-36β-Avi were captured at 10 μL/min to achieve 15-25 response units in the second flow cell (FC2). FC1 was kept as a reference. […] The sensorgram was recorded and subject to reference and buffer subtraction before data analysis with the BIACORE® 8K Evaluation Software (version 1.1.1.7442). […] Association rates (kₒₙ) and dissociation rates (koff) were calculated using a simple one-to-one Langmuir binding model. The equilibrium dissociation constant (KD) was calculated as the ratio of koff/kₒₙ.
Background: SPR reads the build-up and loss of mass on a sensor chip optically.

For assay [2], the target named is T2, cy-IL-36β-Avi (in-vivo biotinylated) (cynomolgus monkey, site-specifically biotinylated in vivo on the C-terminal AviTag (BirA)).
T2 construct: also called cy-IL-36J-Avi [sic]; biotinylated cyno IL-36β-Avi
T2 chain: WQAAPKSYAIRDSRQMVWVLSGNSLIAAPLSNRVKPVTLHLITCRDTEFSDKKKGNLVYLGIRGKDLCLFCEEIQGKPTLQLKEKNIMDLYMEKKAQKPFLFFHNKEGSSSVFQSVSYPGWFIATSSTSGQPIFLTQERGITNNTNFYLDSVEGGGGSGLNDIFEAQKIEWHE
The assay is described as above. How it is done:
as §1

In assay [3] the target is T3, cy-IL-36α-Avi (in-vivo biotinylated) (cynomolgus monkey, limits assumed, site-specifically biotinylated in vivo on the C-terminal AviTag (BirA)).
T3 construct: also called biotinylated cyno IL-36α-Avi
T3 chain: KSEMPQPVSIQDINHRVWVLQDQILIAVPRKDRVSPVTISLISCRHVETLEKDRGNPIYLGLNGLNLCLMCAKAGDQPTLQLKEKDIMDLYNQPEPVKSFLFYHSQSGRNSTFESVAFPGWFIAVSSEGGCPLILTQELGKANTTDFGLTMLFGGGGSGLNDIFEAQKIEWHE
The experiment in a line: SPR (Biacore 8K), in-vivo biotinylated IL-36-Avi captured on CAP chip, bispecific IgG injected, 25°C. How it is done:
as §1

For assay [4], the target named is T4, hu-IL-36α-Avi (in-vivo biotinylated) (human, site-specifically biotinylated in vivo on the C-terminal AviTag (BirA)).
T4 construct: also called biotinylated human IL-36α-Avi
T4 chain: T3 chain with S2I, E3D, M4T, P7Q, V8G, I24T, V34M, S40A, A74V
The description is as above. The procedure: as §1

The target in assay [5] is T1, hu-IL-36β-Avi (in-vivo biotinylated). The description is as above. How it is done: as §1
For assay [6], the target named is T5, hu-IL-36γ-Avi (in-vivo biotinylated) (human, site-specifically biotinylated in vivo on the C-terminal AviTag (BirA)).
T5 construct: also called biotinylated human IL-36γ-Avi
T5 chain: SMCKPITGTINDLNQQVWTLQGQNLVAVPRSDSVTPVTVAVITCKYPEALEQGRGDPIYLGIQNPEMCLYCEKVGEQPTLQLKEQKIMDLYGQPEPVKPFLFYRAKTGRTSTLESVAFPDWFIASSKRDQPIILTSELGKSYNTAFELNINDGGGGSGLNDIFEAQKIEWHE
Described as above. How it is done: as §1

The target in assay [7] is T6, cy-IL-36γ-Avi (in-vivo biotinylated) (cynomolgus monkey, limits assumed, site-specifically biotinylated in vivo on the C-terminal AviTag (BirA)).
T6 construct: also called biotinylated cyno IL-36γ-Avi
T6 chain: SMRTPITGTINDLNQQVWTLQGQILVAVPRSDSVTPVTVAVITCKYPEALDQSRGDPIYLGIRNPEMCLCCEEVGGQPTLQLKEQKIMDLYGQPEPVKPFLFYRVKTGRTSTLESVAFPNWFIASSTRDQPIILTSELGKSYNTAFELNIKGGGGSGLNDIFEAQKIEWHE
The description is as above. How it is done: as §1

The target of assay [8] is T2, cy-IL-36β-Avi (in-vivo biotinylated). The description is as above. How it is done:
as §1

Substitutions are numbered along the chain they refer to. Names may count otherwise.

B1: mAb2.10/mAb6_2.7 multispecific common light chain antibody (IgG, knobs-into-holes, N297G) (bispecific antibody)
heavy 1: not shown
heavy 2: not shown
light: ESVLTQPPSVSGAPGQRVTISCTGSSSNIGAHYDVHWYQQLPGTAPKLLIYGNDNRPSGVPDRFSGSKSGTSASLAITGLQAEDEADYYCQSYDYSLSGYVFGGGTKLTVLGQPKAAPSVTLFPPSSEELQANKATLVCLISDFYPGAVTVAWKADSSPVKAGVETTTPSKQSNNKYAASSYLSLTPEQWKSHKSYSCQVTHEGSTVEKTVAPTECS
notes: tags removed; also called mAb2.10/mAb6_2.7 IgG; anti-IL-36 multispecific antibody
A word on the Kd: it is the free concentration of one partner at which half of the binding sites on the other are occupied at equilibrium, for simple one-to-one binding. The koff is a measure of how fast the partners let go of each other. Lower therefore signals slow dissociation. One may read the kon as a measure of how fast the partners come together. Read a low kon as slower complex formation. With B1, the Kd in assay [1] is 1.84 nM; in assay [2] it was 2.51 nM; in assay [3] it was 1.93 nM; in assay [4], 1.17 nM; in assay [5], 0.63 nM; in assay [6] it was 0.72 nM. Moreover, the Kd in assay [7] came out at 0.79 nM; in assay [8], 0.97 nM. Further, the koff in assay [1] amounted to 0.000168 s⁻¹; in assay [2], 0.000218 s⁻¹; in assay [3], 0.000335 s⁻¹; in assay [4] it was 0.000157 s⁻¹; in assay [5] it was 4.77e-05 s⁻¹; in assay [6], 0.000122 s⁻¹. Also, the koff in assay [7] worked out at 0.00013 s⁻¹; in assay [8] it was 6.32e-05 s⁻¹. For the same molecule, the kon in assay [1] was determined as 91400 M⁻¹ s⁻¹; in assay [2], 86900 M⁻¹ s⁻¹; in assay [3] it was 174000 M⁻¹ s⁻¹; in assay [4], 134000 M⁻¹ s⁻¹; in assay [5], 76000 M⁻¹ s⁻¹; in assay [6] it was 171000 M⁻¹ s⁻¹. In addition, the kon in assay [7] came to 165000 M⁻¹ s⁻¹; in assay [8], 65200 M⁻¹ s⁻¹.
